The source of these data is patent US20230183379A1.

The test deals with human IL-6 (human) (UniProt P05231). As to the kind of experiment: cell-based or functional assay.
Chain of human IL-6 (human) (P05231 30-212 limits assumed): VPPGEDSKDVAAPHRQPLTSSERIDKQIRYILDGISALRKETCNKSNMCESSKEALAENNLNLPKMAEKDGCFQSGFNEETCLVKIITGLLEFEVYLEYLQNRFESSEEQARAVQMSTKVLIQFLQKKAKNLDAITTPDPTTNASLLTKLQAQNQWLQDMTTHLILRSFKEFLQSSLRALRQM

B1: BE8 (mouse monoclonal anti-IL6 neutralizing antibody) (antibody, from another filing, V domains shown)
VH: QVTLKESGPGILKPSQTLSLTCSFSGFSLSTSGMGVGWIRQPSGKGLEWLAHIWWDDDKYYNPSLKSQLTISKDTSRNQVFLKITSVDTADTATYYCARSYDDYLYYALDYWGQGTSVTVSS
VL: DIVMTQSPATLSVTPGDRVSLSCRASQSISDYLHWYQQKSHESPRLLIKSVSQSISGIPSRFSGSGSGSDFTLSINSVEPEDVGVYYCQNGHSFPLTFGAGTKLELK
Take B1: the inhibition of growth of XG6 cells in 40 pM IL-6, IC50 amounted to 3 nM and the inhibition of growth of XG7 cells in 40 pM IL-6, IC50 came out at 6 nM.
